Data: paper PMC9482650, “Quantitative fragmentomics allow affinity mapping of interactomes” (Nature Communications, 2022)

T1: ARHGAP21, Q5T5U3
T1 sequence (Q5T5U3 45-169, limits assumed, looked up): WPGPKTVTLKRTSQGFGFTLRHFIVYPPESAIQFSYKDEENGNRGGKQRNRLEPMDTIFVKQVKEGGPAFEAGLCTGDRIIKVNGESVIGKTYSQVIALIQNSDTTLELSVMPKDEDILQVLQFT

T2: DFNB31_1, Q9P202
T2 sequence (Q9P202 135-233, limits assumed, looked up): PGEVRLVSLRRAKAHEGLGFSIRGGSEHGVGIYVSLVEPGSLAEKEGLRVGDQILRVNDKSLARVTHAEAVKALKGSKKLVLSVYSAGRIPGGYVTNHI

T3: DLG3_1, Q92796
T3 sequence (Q92796 125-227, limits assumed, looked up): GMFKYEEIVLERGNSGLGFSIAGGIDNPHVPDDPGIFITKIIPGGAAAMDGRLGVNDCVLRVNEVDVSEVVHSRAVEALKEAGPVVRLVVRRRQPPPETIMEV

T4: DLG3_3, Q92796
T4 sequence (Q92796 374-475, limits assumed, looked up): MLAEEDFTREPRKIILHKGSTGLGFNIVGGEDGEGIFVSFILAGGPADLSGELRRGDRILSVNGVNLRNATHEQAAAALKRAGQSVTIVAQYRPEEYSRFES

T5: LIN7B, Q9HAP6
T5 sequence (Q9HAP6 88-185, limits assumed, looked up): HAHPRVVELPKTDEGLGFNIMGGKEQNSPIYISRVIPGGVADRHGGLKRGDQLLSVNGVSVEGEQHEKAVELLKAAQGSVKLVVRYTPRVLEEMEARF

T6: MPDZ_12, O75970
T6 sequence (O75970 1857-1958, limits assumed, looked up): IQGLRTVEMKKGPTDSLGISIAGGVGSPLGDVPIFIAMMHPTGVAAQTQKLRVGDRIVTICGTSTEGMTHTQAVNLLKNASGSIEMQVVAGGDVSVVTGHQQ

T7: MPP7, Q5T2T1
T7 sequence (Q5T2T1 134-230, limits assumed, looked up): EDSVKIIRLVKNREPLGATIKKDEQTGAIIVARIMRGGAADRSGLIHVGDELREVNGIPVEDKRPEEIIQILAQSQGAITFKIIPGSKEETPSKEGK

T8: PDZD7_3, Q9H5P4
T8 sequence (Q9H5P4 857-944, limits assumed, looked up): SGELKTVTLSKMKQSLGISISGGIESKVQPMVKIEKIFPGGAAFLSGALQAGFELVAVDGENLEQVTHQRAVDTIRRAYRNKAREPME

T9: PDZRN3_1, Q9UPQ7
T9 sequence (Q9UPQ7 244-349, limits assumed, looked up): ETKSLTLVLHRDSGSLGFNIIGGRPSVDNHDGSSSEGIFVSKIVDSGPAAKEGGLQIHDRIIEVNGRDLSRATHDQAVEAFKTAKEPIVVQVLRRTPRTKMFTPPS

T10: RHPN1, Q8TCX5
T10 sequence (Q8TCX5 508-602, limits assumed, looked up): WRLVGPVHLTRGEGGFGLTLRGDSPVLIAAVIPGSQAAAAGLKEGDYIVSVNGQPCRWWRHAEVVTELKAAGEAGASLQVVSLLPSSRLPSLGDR

T11: SHANK1, Q9Y566
T11 sequence (Q9Y566 658-767, limits assumed, looked up): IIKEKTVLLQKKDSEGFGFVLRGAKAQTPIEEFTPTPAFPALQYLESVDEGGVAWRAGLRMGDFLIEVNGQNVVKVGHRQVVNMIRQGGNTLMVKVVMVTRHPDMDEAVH

T12: TIAM2, Q8IVF5
T12 sequence (Q8IVF5 885-986, limits assumed, looked up): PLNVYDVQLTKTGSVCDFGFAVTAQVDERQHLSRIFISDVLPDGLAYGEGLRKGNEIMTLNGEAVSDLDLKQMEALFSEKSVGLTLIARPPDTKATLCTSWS


Legend:
Assay in all cases: holdup assay
Set-up in all cases: key: below the threshold = too weak to quantify, mostly under pKd 3.1 to 4
Details in all cases: plain residues with an end cap or a label only (N-terminal biotin on a linker: ado-ado)
ARHGAP21, Q5T5U3 = biological target: T1, ARHGAP21, Q5T5U3
ARHGEF12, Q9NZN5-2 = biological target: ARHGEF12, Q9NZN5-2
Sequence of ARHGEF12, Q9NZN5-2 (Q9NZN5 other isoform, or with tags, fused parts or gaps): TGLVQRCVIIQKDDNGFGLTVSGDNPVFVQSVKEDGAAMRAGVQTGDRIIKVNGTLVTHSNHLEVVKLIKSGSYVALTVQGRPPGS

DFNB31_1, Q9P202 = biological target: T2, DFNB31_1, Q9P202
DLG1_1, Q12959 = biological target: DLG1_1, Q12959
DLG3_1, Q92796 = biological target: T3, DLG3_1, Q92796
DLG3_3, Q92796 = biological target: T4, DLG3_3, Q92796
GOPC, Q9HD26 = biological target: GOPC, Q9HD26
HTRA2, O43464 = biological target: HTRA2, O43464
Sequence of HTRA2, O43464 (O43464 355-458): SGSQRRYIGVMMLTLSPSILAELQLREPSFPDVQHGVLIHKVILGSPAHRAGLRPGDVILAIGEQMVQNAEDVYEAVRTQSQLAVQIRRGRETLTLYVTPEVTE

IL16_1, Q14005 = biological target: IL16_1, Q14005
Sequence of IL16_1, Q14005 (Q14005 210-306): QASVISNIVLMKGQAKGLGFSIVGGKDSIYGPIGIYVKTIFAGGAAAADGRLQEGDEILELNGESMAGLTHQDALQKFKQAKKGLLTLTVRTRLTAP

LDB3, O75112 = biological target: LDB3, O75112
Sequence of LDB3, O75112 (O75112 1-94): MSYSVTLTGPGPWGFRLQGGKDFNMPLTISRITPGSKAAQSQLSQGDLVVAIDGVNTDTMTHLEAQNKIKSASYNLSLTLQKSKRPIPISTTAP

LIN7B, Q9HAP6 = biological target: T5, LIN7B, Q9HAP6
LNX1_1, Q8TBB1 = biological target: LNX1_1, Q8TBB1
Sequence of LNX1_1, Q8TBB1 (Q8TBB1 261-371): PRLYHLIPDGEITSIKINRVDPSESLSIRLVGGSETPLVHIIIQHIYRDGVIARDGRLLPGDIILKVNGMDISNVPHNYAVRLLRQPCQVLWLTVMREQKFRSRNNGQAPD

MAGI2_4, Q86UL8 = biological target: MAGI2_4, Q86UL8
Sequence of MAGI2_4, Q86UL8 (Q86UL8 772-865): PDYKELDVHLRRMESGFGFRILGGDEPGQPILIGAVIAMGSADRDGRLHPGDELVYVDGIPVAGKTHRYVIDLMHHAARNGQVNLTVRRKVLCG

MAST1, Q9Y2H9 = biological target: MAST1, Q9Y2H9
Sequence of MAST1, Q9Y2H9 (Q9Y2H9 962-1065): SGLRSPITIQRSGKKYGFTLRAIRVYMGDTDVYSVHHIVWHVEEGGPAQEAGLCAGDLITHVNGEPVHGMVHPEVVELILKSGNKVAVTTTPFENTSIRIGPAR

MPDZ_12, O75970 = biological target: T6, MPDZ_12, O75970
MPP7, Q5T2T1 = biological target: T7, MPP7, Q5T2T1
PARD3_3, Q8TEW0 = biological target: PARD3_3, Q8TEW0
Sequence of PARD3_3, Q8TEW0 (Q8TEW0 582-685): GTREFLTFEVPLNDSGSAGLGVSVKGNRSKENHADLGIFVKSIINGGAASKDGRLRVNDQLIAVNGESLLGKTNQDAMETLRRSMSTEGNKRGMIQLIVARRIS

PDZD7_3, Q9H5P4 = biological target: T8, PDZD7_3, Q9H5P4
PDZRN3_1, Q9UPQ7 = biological target: T9, PDZRN3_1, Q9UPQ7
PTPN3, P26045 = biological target: PTPN3, P26045
Sequence of PTPN3, P26045 (P26045 505-587): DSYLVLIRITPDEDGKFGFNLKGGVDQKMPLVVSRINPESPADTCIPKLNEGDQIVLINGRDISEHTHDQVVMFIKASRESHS

RHPN1, Q8TCX5 = biological target: T10, RHPN1, Q8TCX5
SCRIB_2, Q14160 = biological target: SCRIB_2, Q14160
Sequence of SCRIB_2, Q14160 (Q14160 857-960): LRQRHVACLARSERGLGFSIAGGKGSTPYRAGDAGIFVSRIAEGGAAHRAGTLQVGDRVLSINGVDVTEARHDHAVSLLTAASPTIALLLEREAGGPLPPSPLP

SCRIB_3, Q14160 = biological target: SCRIB_3, Q14160
Sequence of SCRIB_3, Q14160 (Q14160 999-1103): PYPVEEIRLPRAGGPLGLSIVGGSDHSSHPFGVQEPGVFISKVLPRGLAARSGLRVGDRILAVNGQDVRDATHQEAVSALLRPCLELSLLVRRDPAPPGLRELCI

SHANK1, Q9Y566 = biological target: T11, SHANK1, Q9Y566
TIAM2, Q8IVF5 = biological target: T12, TIAM2, Q8IVF5

Binder	pKd (ARHGAP21, Q5T5U3)	pKd (ARHGEF12, Q9NZN5-2)	pKd (DFNB31_1, Q9P202)	pKd (DLG1_1, Q12959)	pKd (DLG3_1, Q92796)	pKd (DLG3_3, Q92796)	pKd (GOPC, Q9HD26)	pKd (HTRA2, O43464)	pKd (IL16_1, Q14005)	pKd (LDB3, O75112)	pKd (LIN7B, Q9HAP6)	pKd (LNX1_1, Q8TBB1)	pKd (MAGI2_4, Q86UL8)	pKd (MAST1, Q9Y2H9)	pKd (MPDZ_12, O75970)	pKd (MPP7, Q5T2T1)	pKd (PARD3_3, Q8TEW0)	pKd (PDZD7_3, Q9H5P4)	pKd (PDZRN3_1, Q9UPQ7)	pKd (PTPN3, P26045)	also measured
SMLNRRTTPV [CACNG4, Q9UBN1]	3.97	3.86	4	4.42	3.71	4.77	below the threshold	below the threshold	below the threshold	below the threshold	below the threshold	below the threshold	3.52	4.29	below the threshold	below the threshold	below the threshold	4.07	4.35	4.54	pKd (RHPN1, Q8TCX5): below the threshold; pKd (SCRIB_2, Q14160): 3.53; pKd (SCRIB_3, Q14160): 4.11; pKd (SHANK1, Q9Y566): below the threshold; pKd (TIAM2, Q8IVF5): below the threshold
LSEFKAMDSF [CTNNA2, P26232]	below the threshold	below the threshold	below the threshold	below the threshold	below the threshold	below the threshold	below the threshold	below the threshold	below the threshold	below the threshold	3.85	below the threshold	below the threshold	below the threshold	below the threshold	below the threshold	below the threshold	below the threshold	below the threshold	below the threshold	pKd (RHPN1, Q8TCX5): below the threshold; pKd (SCRIB_2, Q14160): below the threshold; pKd (SCRIB_3, Q14160): below the threshold; pKd (SHANK1, Q9Y566): below the threshold; pKd (TIAM2, Q8IVF5): 4.11
RQSILFSTEV [BCR, P11274]	below the threshold	5.09	4.27	4.64	4.17	3.86	4.5	below the threshold	3.85	below the threshold	below the threshold	4.85	4.88	4.97	4.41	below the threshold	below the threshold	4.85	4.03	4.59	pKd (RHPN1, Q8TCX5): 3.94; pKd (SCRIB_2, Q14160): 4.54; pKd (SCRIB_3, Q14160): 4.58; pKd (SHANK1, Q9Y566): 4.58; pKd (TIAM2, Q8IVF5): below the threshold

Now from value to binder, other results behind:

pKd (ARHGAP21, Q5T5U3)	pKd (ARHGEF12, Q9NZN5-2)	pKd (DFNB31_1, Q9P202)	pKd (DLG1_1, Q12959)	pKd (DLG3_1, Q92796)	pKd (DLG3_3, Q92796)	pKd (GOPC, Q9HD26)	pKd (HTRA2, O43464)	pKd (IL16_1, Q14005)	pKd (LDB3, O75112)	pKd (LIN7B, Q9HAP6)	pKd (LNX1_1, Q8TBB1)	pKd (MAGI2_4, Q86UL8)	pKd (MAST1, Q9Y2H9)	pKd (MPDZ_12, O75970)	pKd (MPP7, Q5T2T1)	pKd (PARD3_3, Q8TEW0)	pKd (PDZD7_3, Q9H5P4)	pKd (PDZRN3_1, Q9UPQ7)	pKd (PTPN3, P26045)	Binder	also measured
4.07	4.53	3.6	3.51	below the threshold	below the threshold	3.74	below the threshold	3.9	below the threshold	below the threshold	below the threshold	below the threshold	4.71	below the threshold	below the threshold	3.87	4.8	4.46	5.05	PELESKESVL [SLC1A4, P43007]	pKd (RHPN1, Q8TCX5): 4.49; pKd (SCRIB_2, Q14160): below the threshold; pKd (SCRIB_3, Q14160): 4.7; pKd (SHANK1, Q9Y566): below the threshold; pKd (TIAM2, Q8IVF5): below the threshold
4.05	below the threshold	below the threshold	3.79	below the threshold	below the threshold	below the threshold	below the threshold	below the threshold	3.68	below the threshold	3.87	3.55	3.98	3.52	below the threshold	below the threshold	below the threshold	below the threshold	below the threshold	EEDTAEKDEL [HSPA5, P11021]	pKd (RHPN1, Q8TCX5): below the threshold; pKd (SCRIB_2, Q14160): below the threshold; pKd (SCRIB_3, Q14160): below the threshold; pKd (SHANK1, Q9Y566): below the threshold; pKd (TIAM2, Q8IVF5): below the threshold
3.85	4.42	3.85	4.37	3.8	below the threshold	3.81	below the threshold	below the threshold	below the threshold	below the threshold	below the threshold	below the threshold	4.43	below the threshold	below the threshold	below the threshold	4.31	below the threshold	4.5	PLDSQQHTEV [FAT1, Q14517]	pKd (RHPN1, Q8TCX5): 4.07; pKd (SCRIB_2, Q14160): 4.21; pKd (SCRIB_3, Q14160): 4.2; pKd (SHANK1, Q9Y566): below the threshold; pKd (TIAM2, Q8IVF5): below the threshold
